The text below walks through data of the supplement of paper PMC7877785.

The data set is described as follows: self-splicing fitness, log relative to wild type (ln ratio); higher = more splicing; Tetrahymena group I intron in knt gene, E. coli kanamycin selection, DiMSum; sequences stand for … in CUCUCU…GGAGGGAAAAGUUAUCAGGCAUGCACCUGGUAGCUAGUCUUUAAACCAAUAGAUUGCAUCGGUUUAAAAGGCAAGACCGUCAAAUUGCGGGAAAGGGGUCAACAGCCGUUCAGUACCAAGUCUCAGGGGAAACUUUGAGAUGGCCUUGCAAAGGGUAUGGUAAUAAGCUGACGGACAUGGUCCUAACCACGCAGCCAAGUCCUAAGUCAACAGAUCUUCUGUUGAUAUGGAUGCAGUUCACAGACUAAAUGUCGGUCGGGGAAGAUGUAUUCUUCUCAUAAGAUAUAGUCGGACCUCUCCUUAAUGGGAGCUAGCGGAUGAAGUGAUGCAACACUGGAGCCGCUGGGAACUAAUUUGUAUGCGAAAGUAUAUUGAUUAGUUUUGGAGUACUCGUGGUCG
An outline of the steps:
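Library with all eight P1ex-region intron nucleotides randomised, intron inside the knt kanamycin-resistance gene on pET-22b(+), in E. coli BL21(DE3). Cells grew overnight at 37°C or 30°C on LB agar with or without 25 μg/mL kanamycin (plus 100 μg/mL carbenicillin, 50 μM IPTG, 0.2% rhamnose), in six replicate transformations. Pooled colonies were amplicon-sequenced on Illumina HiSeq 2500. DiMSum fitness is the error-weighted combination of wild-type-normalised replicate fold changes, kanamycin versus none.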

± gives the uncertainty stated by the source.

In the case of UCGCAGCAAUAUUACGCAUG, the “self-splicing fitness (ln)” value is, setting by setting: (30 °C) -3.79 ± 0.33; (37 °C) -2.56 ± 0.27.
The like results for GAUCAGCAAUAUUACGACCA were, in that order, -1.08 ± 0.092 and 0.352 ± 0.15.
In the case of GAUGAGCAAUAUUACGUGGG, the “self-splicing fitness (ln)” value reads like this: (30 °C) -3.45 ± 0.21; (37 °C) -3.04 ± 0.27.
The matching figures for AAGGAGCAAUAUUACGGAGU: -3.24 ± 0.22 and -1.33 ± 0.17.
The like results for UCAUAGCAAUAUUACGACGA were, in that order, -0.24 ± 0.096 and -0.532 ± 0.11.
The like results for UAGGAGCAAUAUUACGGCCA were, in that order, -2.27 ± 0.21 and -1.7 ± 0.27.
In the case of AGGGAGCAAUAUUACGAACC, the “self-splicing fitness (ln)” value is -1.52 ± 0.23 (30 °C) and -1.48 ± 0.29 (37 °C).
The like results for UGUAAGCAAUAUUACGACGA were, in that order, -0.272 ± 0.12 and -0.249 ± 0.11.
The matching figures for UUCCAGCAAUAUUACGUACA: -1.11 ± 0.1 and -0.862 ± 0.12.
In the case of GCAUAGCAAUAUUACGAUGU, the “self-splicing fitness (ln)” value by setting is: (30 °C) -2.82 ± 0.13; (37 °C) -2.31 ± 0.17.
The matching figures for GAACAGCAAUAUUACGAAAC: -0.693 ± 0.1 and -0.301 ± 0.12.
Turning to UACAAGCAAUAUUACGGCUG, the “self-splicing fitness (ln)” value (30 °C) is -0.22 ± 0.1 and the “self-splicing fitness (ln)” value (37 °C) was 0.307 ± 0.16.
The like results for GACGAGCAAUAUUACGACAC were, in that order, -3.03 ± 0.49 and -1.55 ± 0.15.
Turning to AGGGAGCAAUAUUACGUCCU, the “self-splicing fitness (ln)” value is -2.66 ± 0.29 (30 °C) and -1.55 ± 0.24 (37 °C).
The like results for AGAGAGCAAUAUUACGGAUU were, in that order, -2.87 ± 0.2 and -2.57 ± 0.34.
The matching figures for AUGGAGCAAUAUUACGUCUC: -1.83 ± 0.28 and -1.89 ± 0.37.
The like results for AUUAAGCAAUAUUACGUCUA were, in that order, -0.611 ± 0.093 and 0.119 ± 0.091.
For the sequence AUCAAGCAAUAUUACGAGCU, the “self-splicing fitness (ln)” value is -1.24 ± 0.084 (30 °C) and -0.596 ± 0.1 (37 °C).
For ACGAAGCAAUAUUACGGAAC, the “self-splicing fitness (ln)” value is -3.19 ± 0.26 (30 °C) and -1.95 ± 0.25 (37 °C).
The like results for UCAGAGCAAUAUUACGACGG were, in that order, -0.865 ± 0.14 and 0.304 ± 0.18.
The matching figures for AAUGAGCAAUAUUACGACGA: -2.44 ± 0.34 and -3.22 ± 0.47.
The like results for GAUCAGCAAUAUUACGAAUA were, in that order, -0.747 ± 0.11 and -0.471 ± 0.15.
CGCUAGCAAUAUUACGAGAA: the “self-splicing fitness (ln)” value (37 °C) was -1.99 ± 0.29.
Turning to CAGAAGCAAUAUUACGUAAG, the “self-splicing fitness (ln)” value reads like this: (30 °C) -0.12 ± 0.057; (37 °C) 0.772 ± 0.074.
The matching figures for UAGCAGCAAUAUUACGCAAA: -1.89 ± 0.18 and -1.76 ± 0.17.
Take CGGGAGCAAUAUUACGAGGG: the “self-splicing fitness (ln)” value (30 °C) was -2.28 ± 0.29.
For the sequence AGCUAGCAAUAUUACGAUGG, the “self-splicing fitness (ln)” value is, setting by setting: (30 °C) -3.87 ± 0.27; (37 °C) -2.05 ± 0.28.
As to UAACAGCAAUAUUACGUAGA, the “self-splicing fitness (ln)” value is -2.81 ± 0.071 (30 °C) and -1.37 ± 0.086 (37 °C).
Take UGGCAGCAAUAUUACGCCAU: where the note is “30 °C”, the “self-splicing fitness (ln)” value was -3.71 ± 0.25.
On to UCCGAGCAAUAUUACGGAAG, for which the “self-splicing fitness (ln)” value was -3.67 ± 0.44 (30 °C) and -1.82 ± 0.28 (37 °C).
The matching figures for UUCUAGCAAUAUUACGUAUA: -1.28 ± 0.19 and -0.787 ± 0.25.
The like results for GUCCAGCAAUAUUACGCUGG were, in that order, -4.01 ± 0.12 and -3.25 ± 0.11.
The matching figures for AGAUAGCAAUAUUACGCCAU: -2.38 ± 0.12 and -1.27 ± 0.13.
For GCAAAGCAAUAUUACGAAGG, the “self-splicing fitness (ln)” value (30 °C) is -2 ± 0.14 and the “self-splicing fitness (ln)” value (37 °C) is -0.499 ± 0.17.
The matching figures for CGUAAGCAAUAUUACGAAGC: -2.95 ± 0.23 and -2.73 ± 0.26.
For AUCGAGCAAUAUUACGUAGG, the “self-splicing fitness (ln)” value runs as follows: (30 °C) -3.82 ± 0.39; (37 °C) -2.04 ± 0.2.
The like results for ACAAAGCAAUAUUACGGCCU were, in that order, -0.338 ± 0.071 and 0.0409 ± 0.1.
Take CUAAAGCAAUAUUACGUCAA: the “self-splicing fitness (ln)” value (30 °C) is -4.32 ± 0.32 and the “self-splicing fitness (ln)” value (37 °C) was -2.08 ± 0.28.
The matching figures for GCUAAGCAAUAUUACGGCCG: -3.06 ± 0.25 and -2.9 ± 0.47.
The matching figures for AAGCAGCAAUAUUACGGAAG: -3.51 ± 0.15 and -1.35 ± 0.14.
The matching figures for CCACAGCAAUAUUACGGAUC: -4.54 ± 0.34 and -2.8 ± 0.27.
Consider CCAAAGCAAUAUUACGUGUA, for which the “self-splicing fitness (ln)” value is, setting by setting: (30 °C) -3.72 ± 0.14; (37 °C) -1.97 ± 0.12.
The matching figures for UAGCAGCAAUAUUACGCGAU: -2.94 ± 0.2 and -3.07 ± 0.35.
The like results for UCGAAGCAAUAUUACGUUUU were, in that order, -3.28 ± 0.14 and -3.09 ± 0.29.
The like results for UAGCAGCAAUAUUACGGCUA were, in that order, -2.89 ± 0.39 and -1.33 ± 0.28.
As for CGCCAGCAAUAUUACGCAGA, the “self-splicing fitness (ln)” value runs as follows: (30 °C) -3.57 ± 0.47; (37 °C) -2.53 ± 0.24.
For CAACAGCAAUAUUACGCUAG, the “self-splicing fitness (ln)” value was -3.53 ± 0.13 (30 °C) and -2.6 ± 0.14 (37 °C).
As for AAAGAGCAAUAUUACGGGUG, the “self-splicing fitness (ln)” value (30 °C) is -3.95 ± 0.21 and the “self-splicing fitness (ln)” value (37 °C) is -1.88 ± 0.19.
The matching figures for GAAUAGCAAUAUUACGACCA: -0.287 ± 0.13 and -0.616 ± 0.13.
The like results for CGGCAGCAAUAUUACGAGGC were, in that order, -2.99 ± 0.32 and -2.53 ± 0.49.
The matching figures for CGAGAGCAAUAUUACGGGUA: -2.27 ± 0.31 and -2.23 ± 0.27.
UACGAGCAAUAUUACGUGUU: the “self-splicing fitness (ln)” value was -3.63 ± 0.19 (30 °C) and -3.63 ± 0.29 (37 °C).
With ACGCAGCAAUAUUACGAUUA, the “self-splicing fitness (ln)” value (30 °C) was -1.54 ± 0.091 and the “self-splicing fitness (ln)” value (37 °C) was -0.902 ± 0.079.
With GGGCAGCAAUAUUACGUUGA, the “self-splicing fitness (ln)” value is -1.3 ± 0.081 (30 °C) and -0.64 ± 0.098 (37 °C).
For the sequence ACUAAGCAAUAUUACGGGGA, the “self-splicing fitness (ln)” value (30 °C) was -1.84 ± 0.12 and the “self-splicing fitness (ln)” value (37 °C) was -1.55 ± 0.13.
For the sequence GACAAGCAAUAUUACGUCAA, the “self-splicing fitness (ln)” value reads like this: (30 °C) -2.87 ± 0.15; (37 °C) -1.95 ± 0.1.
The matching figures for CAAAAGCAAUAUUACGAACA: -1.95 ± 0.14 and -0.613 ± 0.13.
Regarding UAAGAGCAAUAUUACGUCUA, the “self-splicing fitness (ln)” value (30 °C) was -0.273 ± 0.093 and the “self-splicing fitness (ln)” value (37 °C) is -0.548 ± 0.1.
Regarding UAUCAGCAAUAUUACGUGUA, the “self-splicing fitness (ln)” value (30 °C) is -0.198 ± 0.069 and the “self-splicing fitness (ln)” value (37 °C) was found to be 0.204 ± 0.079.
The matching figures for GUUGAGCAAUAUUACGAAAG: -2.93 ± 0.38 and 0.317 ± 0.17.
With CCAUAGCAAUAUUACGAUAA, the “self-splicing fitness (ln)” value (37 °C) was -3.15 ± 0.4.
As to CUGUAGCAAUAUUACGCAGG, the “self-splicing fitness (ln)” value was -3.56 ± 0.27 (30 °C) and -2.73 ± 0.2 (37 °C).
UCCUAGCAAUAUUACGCAGC: the “self-splicing fitness (ln)” value (37 °C) was -0.949 ± 0.4.
In the case of GGCCAGCAAUAUUACGACUG, the “self-splicing fitness (ln)” value by setting is: (30 °C) -0.744 ± 0.12; (37 °C) -0.348 ± 0.15.
The matching figures for CCAUAGCAAUAUUACGAUUA: -3.12 ± 0.32 and -2.54 ± 0.28.
Turning to CCACAGCAAUAUUACGAAGA, the “self-splicing fitness (ln)” value is -1.5 ± 0.15 (30 °C) and -2.55 ± 0.24 (37 °C).
Regarding UUACAGCAAUAUUACGUGGG, the “self-splicing fitness (ln)” value reads like this: (30 °C) -2.85 ± 0.11; (37 °C) -2.43 ± 0.13.
The like results for CUGAAGCAAUAUUACGCCUG were, in that order, -0.0552 ± 0.12 and 0.982 ± 0.16.
The like results for GGCAAGCAAUAUUACGCUCC were, in that order, -2.93 ± 0.44 and -1.07 ± 0.36.
The like results for AGCUAGCAAUAUUACGCGUA were, in that order, -3.08 ± 0.26 and -0.709 ± 0.18.
Consider AGUAAGCAAUAUUACGAGGA, for which the “self-splicing fitness (ln)” value is -2.06 ± 0.33 (30 °C) and -2.55 ± 0.49 (37 °C).
The like results for UCUGAGCAAUAUUACGCGAG were, in that order, -3.09 ± 0.2 and -2.28 ± 0.24.
The matching figures for UGAUAGCAAUAUUACGGACG: -0.432 ± 0.1 and -0.181 ± 0.15.
The like results for CCGAAGCAAUAUUACGGCCC were, in that order, -3.55 ± 0.3 and -1.71 ± 0.38.
For CUGUAGCAAUAUUACGCAAU, the “self-splicing fitness (ln)” value reads like this: (30 °C) -2.63 ± 0.36; (37 °C) -1.99 ± 0.25.
Take GGUAAGCAAUAUUACGCACA: the “self-splicing fitness (ln)” value is -0.755 ± 0.12 (30 °C) and 0.101 ± 0.15 (37 °C).
